Assay results: PMC3145109

Molecular target: T1, KmtR (UniProt O53838 1-130)
T1 sequence: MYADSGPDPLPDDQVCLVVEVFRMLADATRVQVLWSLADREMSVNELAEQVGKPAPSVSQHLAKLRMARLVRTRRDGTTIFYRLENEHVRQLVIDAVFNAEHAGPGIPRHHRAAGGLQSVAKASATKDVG
Assay: fluorescence anisotropy

B1: PRv0286 32-mer (Rv0826 promoter) (dsDNA)
DNA 1: TCCATAGTGACAACGTGCGTAGTCAGAATTCG
DNA 2: CGAATTCTGACTACGCACGTTGTCACTATGGA
  binding result: no binding
